Residue numbers refer to the chain shown, from its start. One block for each binder: values may come before it.
Tests used:
TNF-α = molecular target: T1, TNF-α (Homo sapiens, UniProt P01375, biotinylated (said of the BLI experiment)); test: ELISA; screening ELISA; antigen coated at 1 µg/mL (30 ng/well) in bicarbonate coating buffer on 384-well MaxiSorp overnight at 4°C; blocked with 4% milk in PBS; antibody at 1 µg/mL in PBS, 2 h at room temperature; goat anti-human IgG Fc-HRP, TMB, absorbance at 450 nm; conditions: both partners purified
T1 construct: TNF-α, a pro-inflammatory cytokine, target of adalimumab; also called Purified TNF-α; biotinylated TNF-α; source: bought: Acro Biosciences (Cat #TNA-H82E3, Lot #BV2043-241DF11R8)

Human PD-1 = molecular target: T2, Human PD-1 (human, UniProt Q15116); test: as above; conditions: both partners purified
T2 construct: programmed death receptor 1 (PD-1), human, target of pembrolizumab; The printed catalogue number is that of the TNF-α product, probably a slip; also called programmed death receptor 1; Target (pembrolizumab panels); source: bought: Acro Biosciences (printed Cat #TNA-H82E3, Lot #BV2043-241DF1-1R8)
T2 sequence (Q15116 25-170): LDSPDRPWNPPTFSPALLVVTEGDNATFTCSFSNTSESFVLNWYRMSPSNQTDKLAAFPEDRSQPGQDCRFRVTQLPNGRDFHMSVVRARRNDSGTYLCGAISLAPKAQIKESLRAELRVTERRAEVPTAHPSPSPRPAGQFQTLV

T1 sequence (P01375 77-233): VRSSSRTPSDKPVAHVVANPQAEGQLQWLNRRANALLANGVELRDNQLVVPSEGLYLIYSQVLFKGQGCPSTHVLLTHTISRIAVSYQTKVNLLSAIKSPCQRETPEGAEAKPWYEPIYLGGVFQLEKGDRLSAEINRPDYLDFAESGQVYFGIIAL

B1: adalimumab VH paired with LICHEN-5 light sequence (pairing_CDRs) (antibody, V domains shown)
VH: not shown
VL: EIVLTQSPATLSLSPGERATLSCRASQGIRNYLAWYQQKPGQAPRLLIYAASTLQSGIPARFSGSGSGTDFTLTISSLEPEDFAVYYCQRYNRAPYTFGQGTKLEIK
notes: as the VH of m3 (native VH of adalimumab); Whole antibody; also called LICHEN-5 (adalimumab)
binding result (TNF-α): binds

B2: adalimumab VH paired with LICHEN-3 light sequence (pairing_CDRs) (antibody, V domains shown)
VH: not shown
VL: DIVMTQTPPSSPVTLGQPASISCRASQGIRNYLAWYQQKPGQSPKLLISAASTLQSGVPSRFSGSGSGTDFTLKISSLQPEDVATYYCQRYNRAPYTFGQGTKLEIK
notes: as the VH of m3 (native VH of adalimumab); Whole antibody; also called LICHEN-3 (adalimumab)
binding result (TNF-α): binds

B3: pembrolizumab (antibody, V domains shown)
VH: QVQLVQSGVEVKKPGASVKVSCKASGYTFTNYYMYWVRQAPGQGLEWMGGINPSNGGTNFNEKFKNRVTLTTDSSTTTAYMELKSLQFDDTAVYYCARRDYRFDMGFDYWGQGTTVTVSS
VL: EIVLTQSPATLSLSPGERATLSCRASKGVSTSGYSYLHWYQQKPGQAPRLLIYLASYLESGVPARFSGSGSGTDFTLTISSLEPEDFAVYYCQHSRDLPLTFGGGTKVEIK
notes: native VH of the therapeutic pembrolizumab (humanised, IGHV1); Whole antibody (detected by anti-human IgG Fc); also called therapeutic; positive control (pembrolizumab panels)
binding result (Human PD-1): binds

B4: pembrolizumab VH paired with germline IGKV3-11*01/IGKJ1*01 with the pembrolizumab light CDRs grafted (antibody, V domains shown)
VH: B3 VH
VL: B3 VL with V62I, G104Q
notes: as the VH of m13 (native VH of pembrolizumab); germline V-gene IGKV3-11*01 combined with J-gene IGKJ1*01, all three light CDRs of pembrolizumab (Kabat definition) grafted; Whole antibody; also called Germline-2+ (pembrolizumab)
binding result (Human PD-1): binds

B5: pembrolizumab VH paired with germline IGKV3-20*01/IGKJ1*01 with the pembrolizumab light CDRs grafted (antibody, V domains shown)
VH: B3 VH
VL: B3 VL with A9G, V62I, A64D, S81R, G104Q
notes: as the VH of m13 (native VH of pembrolizumab); germline V-gene IGKV3-20*01 combined with J-gene IGKJ1*01, all three light CDRs of pembrolizumab (Kabat definition) grafted; Whole antibody; also called Germline-1+ (pembrolizumab)
binding result (Human PD-1): binds

Further lines, results first:

binding result (Human PD-1): binds
B6: pembrolizumab VH paired with germline IGKV7-3*01/IGKJ1*01 with the pembrolizumab light CDRs grafted (antibody, V domains shown)
VH: B3 VH
VL: DIVLTQSPASLAVSPGQRATITCRASKGVSTSGYSYLHWYQQKPGQPPKLLIYLASYLESGVPARFSGSGSGTDFTLTINPVEANDTANYYCQHSRDLPLTFGQGTKVEIK
notes: as the VH of m13 (native VH of pembrolizumab); germline V-gene IGKV7-3*01 combined with J-gene IGKJ1*01, all three light CDRs of pembrolizumab (Kabat definition) grafted; Whole antibody; also called Germline-3+ (pembrolizumab)

binding result (TNF-α): binds
B7: adalimumab VH paired with germline IGKV7-3*01/IGKJ1*01 with the adalimumab light CDRs grafted (antibody, V domains shown)
VH: not shown
VL: DIVLTQSPASLAVSPGQRATITCRASQGIRNYLAWYQQKPGQPPKLLIYAASTLQSGVPARFSGSGSGTDFTLTINPVEANDTANYYCQRYNRAPYTFGQGTKVEIK
notes: as the VH of m3 (native VH of adalimumab); germline V-gene IGKV7-3*01 combined with J-gene IGKJ1*01, all three light CDRs of adalimumab (Kabat definition) grafted; Whole antibody; also called Germline-3+ (adalimumab)

binding result (TNF-α): binds
B8: adalimumab VH paired with LICHEN-2 light sequence (pairing_CDRs) (antibody, V domains shown)
VH: not shown
VL: DIQMTQSPSFVSASVGDRVTITCRASQGIRNYLAWYQQKPGKAPEVLISAASTLQSGVPSRFSGSGSGTEFTLTITNLQPEDSATYFCQRYNRAPYTFGQGTRLDIK
notes: as the VH of m3 (native VH of adalimumab); Whole antibody; also called LICHEN-2 (adalimumab)

Source: paper doi:10.1101/2025.08.06.668938 (bioRxiv, 2025)
